Here are results for 36 sequences from the supplement of paper PMC12764529.

± gives the half width of the 95% confidence interval.

A short description of data set [1]: folding stability dG unfold from trypsin proteolysis; higher = more stable. The method, boiled down:
(§1)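 Unfolding free energy was derived, per protease or combined, against a sequence-predicted unfolded-state K50 and a shared folded-state K50, starting from K50 inferred by Bayesian fitting of sequencing counts. Digestion with trypsin and chymotrypsin was carried out on designed mini-proteins under 80 residues without cysteine in a PA-tagged cDNA display construct. Only designs with AlphaFold2 dimer inter-PAE above 15 were kept.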

A short description of data set [2]: folding stability dG unfold from chymotrypsin proteolysis; higher = more stable. The method, boiled down: as §1
A short description of data set [3]: folding stability dG unfold (combined trypsin and chymotrypsin); higher = more stable. The essentials:
as §1

For “SAGGSASIKVTYRFPPDTTVEQAIEDLIAYLEAQTNVKISIPSYTVEREGDYLLVTADILIEPLPESAGGSA [r15_105_TrMRF]”, the “folding stability dG unfold” value in data set [1] amounted to 4.18 ± 0.086 kcal/mol; in data set [2], 4.61 ± 0.056 kcal/mol; in data set [3] it was 4.59 ± 0.073 kcal/mol.
For “SAGGSASLASLRKVGETVTYTITPDGTLTVTTHTFYRDPVTGELVVESTTTTTPIPPGDAAALAALSAGGSA [r15_207_JUSTAS]” the same measures were 2.72 ± 0.072 kcal/mol, 2.37 ± 0.054 kcal/mol and 2.5 ± 0.098 kcal/mol.
Take “SAGGSASLEELAEKLREKLPPEEAEKLRELLKELEEKGYEIVEIRIEVLPNGEKKVTIKLKVKKKPSAGGSA [r15_613_TrROS_Hall]”: the “folding stability dG unfold” value in data set [1] was 3.34 ± 0.2 kcal/mol; in data set [2], 3.32 ± 0.26 kcal/mol; in data set [3], 3.41 ± 0.17 kcal/mol.
For the sequence “SAGGSASLEEVASLPASALAAAAGLTALSVEVTREPDGTVTVTIETRPPDGPVVTVTYTFPVDPAASAGGSA [r15_805_JUSTAS]”, the “folding stability dG unfold” value in data set [1] came to 0.848 ± 0.2 kcal/mol; in data set [2], 2.6 ± 0.098 kcal/mol; in data set [3], 2.06 ± 0.39 kcal/mol.
As for “SAGGSASLNLTPDDNVTLTVSTPDGSGATVEVKVEKLPDGTIKLTETVTWPDGTVSTRTSTISTKASAGGSA [r15_476_JUSTAS]”, the “folding stability dG unfold” value in data set [1] amounted to 1.08 ± 0.045 kcal/mol; in data set [2], 0.598 ± 0.028 kcal/mol; in data set [3] it was 0.893 ± 0.041 kcal/mol.
As for “SAGGSASMARVEAIAEEIAPRLKAEGRPIARIEVTATRLPDGTVVVPITLTTPDGTPVYTFEVVVESAGGSA [r15_232_JUSTAS]”, the “folding stability dG unfold” value in data set [1] is 1.03 ± 0.051 kcal/mol; in data set [2], 1.74 ± 0.032 kcal/mol; in data set [3] it was 1.48 ± 0.058 kcal/mol.
On to “SAGGSASMSKTTTETSPDSETTTTTYYPNGTVTTTKTTTVGEGTTTTTTTTKVLFIPGPGVLVPEPSAGGSA [r15_746_JUSTAS]”, for which the “folding stability dG unfold” value is -0.174 ± 0.045 kcal/mol in data set [1], 0.514 ± 0.062 kcal/mol in data set [2] and 0.259 ± 0.046 kcal/mol in data set [3].
With “SAGGSASMVEEEVTLQKKVKSEEEALKFAEEVKESNPHVKTVEVSLEKLPDGSILVNVTIKRILKPSAGGSA [r15_726_JUSTAS]”, the entries for the “folding stability dG unfold” value in data set [1], in data set [2] and in data set [3] were 4.43 ± 0.4 kcal/mol, 3.31 ± 0.093 kcal/mol and 4.21 ± 0.29 kcal/mol, respectively.
As for “SAGGSASNLKVTYKITIGSTTITVTLPEGSEKELKKIPNAEVTPISEIEPAPPPILYFKFENNNLVSAGGSA [r15_443_JUSTAS]”, the results for the “folding stability dG unfold” value in data set [1], in data set [2] and in data set [3] were 0.739 ± 0.047 kcal/mol, 1.25 ± 0.17 kcal/mol and 1.09 ± 0.089 kcal/mol, respectively.
On to “SAGGSASPEKVAEELKKKGYKEVKITKDPNTNVTTVTVEDPSGKKYTLTVDPKNPTVVSKKEFSLDSAGGSA [r15_648_JUSTAS]”, for which the “folding stability dG unfold” value in data set [1] stood at 0.926 ± 0.043 kcal/mol; in data set [2], 1.51 ± 0.096 kcal/mol; in data set [3], 1.25 ± 0.14 kcal/mol.
In the case of “SAGGSASRRLFVRTLPDDAVIVVEVPPGMSEEEAVEIAERRAEAAERVLRAAIEAERAGKAPVIPLSAGGSA [r15_704_TrMRF]”, the results for the “folding stability dG unfold” value in data set [1], in data set [2] and in data set [3] were 0.594 ± 0.13 kcal/mol, -0.0499 ± 0.29 kcal/mol and 0.342 ± 0.11 kcal/mol, respectively.
For “SAGGSASSMLSPSLYVTTITVKKPGGMTVTETVPGTPEEVERLIEELKKKGLEVEKVDVVPVSELVSAGGSA [r15_640_JUSTAS]”, in that order: 1.9 ± 0.062 kcal/mol, 1.47 ± 0.034 kcal/mol and 1.66 ± 0.058 kcal/mol.
“SAGGSASSYGIEIEFSEDPNSKTKKITITVTRPDGTVETVTITNPDITDEEAKKIGEELANEVANSSAGGSA [r15_526_JUSTAS]”: the “folding stability dG unfold” value was 2.19 ± 0.055 kcal/mol in data set [1], 1.93 ± 0.02 kcal/mol in data set [2] and 2.06 ± 0.059 kcal/mol in data set [3].
“SAGGSASVTTTVTLPNGEVVTITFDPANPTTATLSFPDGTTVTLSFSSPEEALARAIEELLAGKPLSAGGSA [r15_38_JUSTAS]”: the “folding stability dG unfold” value in data set [1] stood at 2.99 ± 0.1 kcal/mol; in data set [2] it was 2.01 ± 0.056 kcal/mol; in data set [3], 2.48 ± 0.081 kcal/mol.
Turning to “SAGGSATAEELADEIANYMADRHGMEVKKIEITDVDNDRVVFRAEVEMPNPNGKKHTHPFTIEIPVSAGGSA [r15_276_TrROS]”, the entries for the “folding stability dG unfold” value in data set [1], in data set [2] and in data set [3] were -0.0958 ± 0.17 kcal/mol, 0.303 ± 0.31 kcal/mol and 0.226 ± 0.29 kcal/mol, respectively.
For “SAGGSATIEEKIRNIAKEQGFPVTDVQVRRTPGKVYIMFQAKDPRMYYIEIDNDKIKIMPAEDIKPSAGGSA [r15_901_TrROS]” the same measures were 1.14 ± 0.027 kcal/mol, 1.57 ± 0.064 kcal/mol and 1.36 ± 0.06 kcal/mol.
Consider “SAGGSATLKEIAKEIEKTVKPKYAKKLAKTIEEAVKKGYEIKKIIIEKPKDDSFKATIYLKKPNDPSAGGSA [r15_613_TrMRF]”, for which the “folding stability dG unfold” value in data set [1] is 0.676 ± 0.14 kcal/mol; in data set [2] it was 0.294 ± 0.45 kcal/mol; in data set [3], 0.66 ± 0.27 kcal/mol.
As to “SAGGSATLPEKILEELAAAGYPLEYVTITEVKTEERPGSVVVTVKVEYKVPNSDRIETVNLTVPRPSAGGSA [r15_863_JUSTAS]”, the “folding stability dG unfold” value was determined as 1.71 ± 0.032 kcal/mol in data set [1], 1.68 ± 0.029 kcal/mol in data set [2] and 1.73 ± 0.036 kcal/mol in data set [3].
For the sequence “SAGGSATLTLEAEFRLEDGTTVRVRVEVSPDGTVRIEVEVLPAPPPPPKVEVKEVFTTADGRKVLLSAGGSA [r2_78_TrROS_Hall]”, the “folding stability dG unfold” value in data set [1] amounted to 1.2 ± 0.035 kcal/mol; in data set [2], 1.62 ± 0.063 kcal/mol; in data set [3] it was 1.57 ± 0.1 kcal/mol.
On to “SAGGSATPKDPDGKEWKPIAVIDIEEMRPETLKELLEENKGPIWIHPPGEGKPFWIPADEIEDMIDSAGGSA [r15_904_TrROS]”, for which the “folding stability dG unfold” value in data set [1] is 0.668 ± 0.054 kcal/mol; in data set [2], -0.129 ± 0.2 kcal/mol; in data set [3], 0.336 ± 0.21 kcal/mol.
Regarding “SAGGSATQVVLKITIKINKGEKEETREIVLPATDPEEAIAKVKKELKEKGIDAEIEELEILPVDLLSAGGSA [r15_165_JUSTAS]”, the “folding stability dG unfold” value turned out to be 1.31 ± 0.089 kcal/mol in data set [1], 0.919 ± 0.059 kcal/mol in data set [2] and 1.27 ± 0.15 kcal/mol in data set [3].
Take “SAGGSAVERLRELLKELGVEVTVERKDGKVYIRVEASPEKREKLAEALRELFGKDIEIEVLEEGEEPSAGGS [r16_514_TrROS_Hall]”: the “folding stability dG unfold” value in data set [1] came to 3.86 ± 0.18 kcal/mol; in data set [2] it was 3.17 ± 0.073 kcal/mol; in data set [3], 3.49 ± 0.08 kcal/mol.
As to “SAGGSAVIEFELELRTRPDGSVEEEEIIAEARELIEAIPEAENAEILEIRREAFPDGTVRYHVRVRVPSAGG [r13_462_TrMRF]”, the “folding stability dG unfold” value in data set [1] was 3.46 ± 0.072 kcal/mol; in data set [2], 3.01 ± 0.036 kcal/mol; in data set [3], 3.19 ± 0.072 kcal/mol.
“SAGGSAVKIDPKTKVIEVKNPETGETYRISLPDVPPEDGVEVEVGDDKIIIKTPKGTKEIPIDKAKSAGGSA [r15_864_TrMRF]”: the “folding stability dG unfold” value in data set [1] is -0.000856 ± 0.16 kcal/mol; in data set [2], 0.794 ± 0.18 kcal/mol; in data set [3], 0.529 ± 0.25 kcal/mol.
“SAGGSAVPAEAKKKVFLKPVKVNIPLPGNYEIVEIDPKTGKIVIKVPGSSKTLVVDLKSGKVYEFGSAGGSA [r15_452_TrMRF]”: the “folding stability dG unfold” value in data set [1] worked out at 1.19 ± 0.061 kcal/mol; in data set [2] it was 1.78 ± 0.085 kcal/mol; in data set [3] it was 1.51 ± 0.14 kcal/mol.
With “SAGGSAVSISTVTSTSFPGSGTSVKTYETPDFTVTVTTTRDPNGADTVEIHTDDPEAEKTVREYLASAGGSA [r15_42_JUSTAS]”, the “folding stability dG unfold” value is 0.601 ± 0.049 kcal/mol in data set [1], -0.348 ± 0.28 kcal/mol in data set [2] and 0.337 ± 0.14 kcal/mol in data set [3].
For “SAGGSAVVVTTDPNGTLTVYADNKVVKVKVIPLPRPDPLTGSTSTLLLVEVEVSPLKPDPLPPEFPSAGGSA [r15_515_TrMRF]” the same measures were 2.21 ± 0.2 kcal/mol, 2.65 ± 0.12 kcal/mol and 2.44 ± 0.2 kcal/mol.
For “SAGGSAYGYFYEYKIRFNGQDLSIALPAGDMEKLKDLPGVEIEPRRPEEPPPPPKEEERDPDGKKKSAGGSA [r15_443_TrROS]”, in that order: 2.3 ± 0.18 kcal/mol, 2.98 ± 0.071 kcal/mol and 2.8 ± 0.24 kcal/mol.
Turning to “SAGGSDEHEYKGTGRDPDNGQTREETYRVEPVVPPIPISISVSLNLDIDPNGNLNWDFNISIGIGISAGGSA [r2_326_TrROS]”, the “folding stability dG unfold” value in data set [1] is 2.78 ± 0.2 kcal/mol; in data set [2], 3.81 ± 0.33 kcal/mol; in data set [3] it was 3.33 ± 0.37 kcal/mol.
As for “SAGGSDGEMITYPFLLPDGYLITIWISPENGQITEIEIMPIPAPPPEPPVEPKYGRDDGNGNKKYDSAGGSA [r2_78_TrROS]”, the “folding stability dG unfold” value in data set [1] amounted to 1.14 ± 0.047 kcal/mol; in data set [2] it was 1.72 ± 0.088 kcal/mol; in data set [3], 1.52 ± 0.16 kcal/mol.
Take “SAGGSDLKVQVNKDGNTIRIQLPDGKPIFEIPFYRYDPDDGKPLEPWTIRMRLDPDGNIKIEEITPSAGGSA [r2_362_TrROS]”: the “folding stability dG unfold” value in data set [1] is 1.77 ± 0.044 kcal/mol; in data set [2], 1.45 ± 0.14 kcal/mol; in data set [3], 1.68 ± 0.15 kcal/mol.
Take “SAGGSDRVLVPAGPSDYDVLVVVTPGPGDLVGVDALVIHPDGTPLAVRGVLDPTTGGISPVAVDPLSAGGSA [r2_402_TrMRF]”: the “folding stability dG unfold” value in data set [1] is 0.28 ± 0.024 kcal/mol; in data set [2] it was 0.243 ± 0.051 kcal/mol; in data set [3], 0.258 ± 0.038 kcal/mol.
For “SAGGSDTVVLDFTVTVDGKPYTVRVTLTRNPPTGEITVPVEIESANPEDAVPAREVADALVERLLSSAGGSA [r2_259_TrMRF]” the same measures were 1.21 ± 0.028 kcal/mol, 1.78 ± 0.075 kcal/mol and 1.56 ± 0.076 kcal/mol.
As for “SAGGSEEFELEFRVEAASPEEAEALAEEIRKRLEDLGLDVEVEAETLEPGAVVVRPRVRVDPETGRLDSAGG [r13_697_TrMRF]”, the “folding stability dG unfold” value is 0.126 ± 0.24 kcal/mol in data set [1], 1.29 ± 0.065 kcal/mol in data set [2] and 0.956 ± 0.16 kcal/mol in data set [3].
Regarding “SAGGSEEIKKLLASGQLDEVIALLKKKGYENVTVTPDPRKPVVTINVTKTDPKTGKKKTTTITIPTGLSAGG [r13_359_JUSTAS]”, the “folding stability dG unfold” value came to 3.62 ± 0.1 kcal/mol in data set [1], 4.03 ± 0.052 kcal/mol in data set [2] and 3.92 ± 0.086 kcal/mol in data set [3].
For the sequence “SAGGSEIKIEIKYDEETGELVVEITVPESEEEVKKLVEELKKLGVEKVEIVRDKKTKEYRIRVVFKSAGGSA [r2_358_TrROS_Hall]”, the “folding stability dG unfold” value in data set [1] came out at 3.28 ± 0.14 kcal/mol; in data set [2], 4.98 ± 0.3 kcal/mol; in data set [3], 4.82 ± 0.57 kcal/mol.
